We go through five compounds from paper PMC12112095, “Insights into Chemoreceptor MCP2201-Sensing D-Malate” (International Journal of Molecular Sciences, 2025).

Test [1] addresses MCP2201 LBD mutant T105A (T105A LBD) (Comamonas testosteroni CNB-1). The experiment in a line: AUC; ligand-free; Beckman XL-I, 60,000 x g, 7 h, 4 °C.
Test [2] has the same target. The test can be described thus: AUC; in the presence of citrate; Beckman XL-I, 60,000 x g, 7 h, 4 °C.
Test [3] has the same target. The test can be described thus: AUC; in the presence of D-malate; Beckman XL-I, 60,000 x g, 7 h, 4 °C.
Test [4] deals with T1, MCP2201 (Comamonas thiooxydans, UniProt A0ABF7PFR0, T105A).
T1 construct: gene CtCNB1_2201; T105A LBD
The test can be described thus: ITC. Type of test: binding.

For test [5], the target named is T2, MCP2201 (Comamonas thiooxydans, UniProt A0ABF7PFR0).
T2 construct: gene CtCNB1_2201; LBD (residues 58–203), N-terminal His6-tag
T2 sequence (A0ABF7PFR0 58-203): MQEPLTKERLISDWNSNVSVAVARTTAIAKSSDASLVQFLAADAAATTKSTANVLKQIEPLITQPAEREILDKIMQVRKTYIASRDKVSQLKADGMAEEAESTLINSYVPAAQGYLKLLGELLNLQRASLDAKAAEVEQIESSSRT
The test can be described thus: analytical ultracentrifugation (ligand-induced LBD dimerization). Type of test: binding.

Test [6] addresses T2, MCP2201. The test can be described thus: ITC; crystal structure at […] Å. Type of test: binding. On the technique in general: ITC needs no label: the signal is the heat of the interaction.
The target of test [7] is ligand-binding domain of MCP2201 (MCP2201 LBD) (Comamonas testosteroni CNB-1). The test can be described thus: AUC; ligand-free; Beckman XL-I, 60,000 x g, 7 h, 4 °C.
Test [8] has the same target. The test can be described thus: AUC; in the presence of D-malate; Beckman XL-I, 60,000 x g, 7 h, 4 °C.
Test [9] has the same target. The experiment in a line: AUC; in the presence of L-malate; Beckman XL-I, 60,000 x g, 7 h, 4 °C.
For test [10] the target is unchanged. The test can be described thus: ITC; dilution: 1.1 mM protein in 10 mM D-malate, 20 mM Tris pH 7.5, 150 mM NaCl injected into the same buffer, 25 °C; oligomer dissociation model; dimer to monomers.

In the case of “MCP2201 LBD mutant T105A (T105A LBD) (domain or fragment)”, the stoichiometry N in test [1], in test [2] and in test [3] was 2 throughout.

Regarding `O=C(O)CC(O)(CC(=O)O)C(=O)O` [citrate], the Kd (commonly the equilibrium constant for the complex coming apart) at MCP2201 [4] is 670 ± 270 µM.

Turning to `O=C(O)CC(O)C(=O)O` (stereo in doubt) [L-malate], the “analytical ultracentrifugation (ligand-induced LBD dimerization)” value on MCP2201 [5] is given as “the D-malate-bound MCP2201 LBD predominately occurred as a dimer, the same as the L-malate-bound LBD (Figure 3B)”.

For `O=C(O)C[C@@H](O)C(=O)O` [D-malate], the Kd at MCP2201 [4] was determined as 5.5 ± 0.01 µM; on MCP2201 [6] it was 40 ± 3.3 µM.

On to “ligand-binding domain of MCP2201 (MCP2201 LBD) (domain or fragment)”, for which the stoichiometry N in test [7], in [8] and in [9] was 2 each time. The compound also showed a Kd in [10] of 0.027 µM.
